Test [1] has as its target protein G-agarose beads (UniProt P06654). The test is described as follows: mock depletion of FSGS plasma with protein G-agarose beads only, R&D ELISA.
The target in test [2] is suPAR in human plasma from FSGS patients (human) (UniProt Q03405). The test is described as follows: immunodepletion of FSGS plasma, remaining suPAR measured by R&D ELISA.

This passage reports percent lowering of suPAR level in plasma and percent of suPAR removed from human plasma results from patent US20160169910A1.

Sequence of suPAR in human plasma from FSGS patients (Q03405 23-305 limits assumed): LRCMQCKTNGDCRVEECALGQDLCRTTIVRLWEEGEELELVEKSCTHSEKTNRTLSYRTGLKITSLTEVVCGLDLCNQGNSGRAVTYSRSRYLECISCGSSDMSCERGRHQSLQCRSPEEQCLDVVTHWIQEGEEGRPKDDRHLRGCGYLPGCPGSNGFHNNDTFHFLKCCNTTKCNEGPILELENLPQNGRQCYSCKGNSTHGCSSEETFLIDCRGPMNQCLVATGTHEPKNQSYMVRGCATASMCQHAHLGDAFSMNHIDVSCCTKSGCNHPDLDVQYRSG
Sequence of suPAR in human plasma from FSGS patients (human) (Q03405 23-305 limits assumed): as above

Turning to “suPAR in human plasma from FSGS patients (from UniProt Q03405 23-305) (receptor)”, the percent lowering of suPAR level in plasma in test [1] lay within 20 to 50%.
Turning to “mouse monoclonal anti-suPAR antibody ATN615”, the percent of suPAR removed from human plasma in test [2] is > 99%.
